Biological target: recombinant human Pcsk9 (aa 31-692) with C-terminal his6 tag (human) (UniProt Q8NBP7)
Test: TR-FRET, disruption of hLDL-R-Eu and hPcsk9-AF

Sequence of recombinant human Pcsk9 (aa 31-692) with C-terminal his6 tag (human) (Q8NBP7 other isoform, or with tags, fused parts or gaps limits assumed, form in doubt): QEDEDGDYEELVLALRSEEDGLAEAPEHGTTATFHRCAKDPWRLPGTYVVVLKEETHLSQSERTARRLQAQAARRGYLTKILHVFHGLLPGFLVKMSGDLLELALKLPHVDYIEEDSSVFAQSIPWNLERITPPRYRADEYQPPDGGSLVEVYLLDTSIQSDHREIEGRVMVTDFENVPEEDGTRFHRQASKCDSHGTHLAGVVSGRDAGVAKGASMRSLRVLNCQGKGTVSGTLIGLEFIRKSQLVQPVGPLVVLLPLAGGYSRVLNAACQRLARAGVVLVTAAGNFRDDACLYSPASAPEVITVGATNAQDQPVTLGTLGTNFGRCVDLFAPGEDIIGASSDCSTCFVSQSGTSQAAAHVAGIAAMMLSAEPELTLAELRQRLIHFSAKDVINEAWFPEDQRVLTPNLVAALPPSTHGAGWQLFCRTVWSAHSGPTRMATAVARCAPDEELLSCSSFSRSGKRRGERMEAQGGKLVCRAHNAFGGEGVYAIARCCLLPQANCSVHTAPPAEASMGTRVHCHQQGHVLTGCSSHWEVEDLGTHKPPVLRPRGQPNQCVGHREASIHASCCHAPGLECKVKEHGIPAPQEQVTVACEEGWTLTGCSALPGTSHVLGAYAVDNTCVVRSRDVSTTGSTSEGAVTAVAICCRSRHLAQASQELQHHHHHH

EGF-A peptide
IC50: 2500 nM

Source: patent US20110142849A1
